# According to patent US20040018957A1, “Crystal structure of a Ras-P13K complex” (priority 2000, published 2004):
# Columns and labels:
# PI3K = biological target: T1, PI3K (Homo sapiens, UniProt P48736); test: Steady state and kinetic measurements of mant-ATP and mant-ADP binding; conditions: FIG. 2C
# T1 construct: a construct containing residues 144-1102 of the human PI3Kγ with a C-terminal His6 tag; His6 (C); made in house; host or cells: Sf9 insect cells (baculovirus, pVL1393)
# Protocol: Equilibrium binding of mant-ATP to PI3K was measured in a SLM 8000 S spectrofluorimeter with λex=280 nm and […]. This allowed monitoring of energy transfer from tryptophan in the PI3K to mant-ATP. Mant-ATP was titrated into a 1 μM solution of PI3K in running buffer. Each data point represents the average of data collected for 30 seconds with a 1 second integration time. For data collected in the presence of Ras, the solution also contained 6 μM H-ras.GMPPNP. The data were fitted to the binding equation with Kaleidagraph.
# All kinetic data were collected in a Hi-Tech Na61 instrument set up in the single push mode with λex=280 nm and emission monitored with 399 nm cutoff filters. A solution of PI3K was mixed a solution of mant-ATP such that the final PI3K concentration was 1 μM and the ATP concentrations were 2.5, 5. 7.5, 10, 12.5, and 25 μM. The displacement experiment was carried out by mixing 1 μM PI3K and 2 μM mant-ATP with 50 or 200 μM ATP. Curve fits were carried out with the Hi-Tech software and Kaleidagraph. Equilibrium and kinetic data for mant-ADP were collected by the same methods.
# N-Ras.mant-GMPPNP [1] = biological target: T2, N-Ras.mant-GMPPNP (Homo sapiens, UniProt P01111); test: Stopped flow anisotropy, association and dissociation kinetics; format: binding; conditions: 20° C.
# T2 construct: fluorescence anisotropy of full length, unmodified N-Ras.mant-GMPPNP
# Protocol: A Hi-Tech MX61 instrument (Hi-Tech, Salisbury) set up in the T-format with prism polarizers was used to collect data at 20° C. The mant group was excited at 366 nm and emission monitored through 399 nm cutoff filters. The association kinetics were followed by rapid mixing of PI3Kγ with 1 μM N-Ras.mant-GMPPNP under pseudo first-order conditions (PI3Kγ in large excess). Specifically, equal proportions of N-Ras and PI3Kγ were mixed to a final Ras concentration of 1 μM and final PI3Kγ concentrations of 5 and 10 μM. The dissociation rate was measured by mixing a solution of 1 μM N-Ras.mant-GMPPNP and 5 μM PI3K with 9 μM N-Ras.GMPPNP. Attempts to determine association rates at higher PI3K concentrations were limited by solubility of the protein. Data were fitted to single exponential curves within the Hi-Tech software.
# Target sequence in this assay (P01111 whole entry): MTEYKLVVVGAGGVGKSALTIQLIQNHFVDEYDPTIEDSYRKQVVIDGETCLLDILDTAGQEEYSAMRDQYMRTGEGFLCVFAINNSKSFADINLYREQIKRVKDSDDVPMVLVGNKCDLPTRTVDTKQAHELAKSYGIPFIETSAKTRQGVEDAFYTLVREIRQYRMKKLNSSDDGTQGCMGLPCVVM
# Target sequence in this assay (P48736 144-1102 partner limits assumed): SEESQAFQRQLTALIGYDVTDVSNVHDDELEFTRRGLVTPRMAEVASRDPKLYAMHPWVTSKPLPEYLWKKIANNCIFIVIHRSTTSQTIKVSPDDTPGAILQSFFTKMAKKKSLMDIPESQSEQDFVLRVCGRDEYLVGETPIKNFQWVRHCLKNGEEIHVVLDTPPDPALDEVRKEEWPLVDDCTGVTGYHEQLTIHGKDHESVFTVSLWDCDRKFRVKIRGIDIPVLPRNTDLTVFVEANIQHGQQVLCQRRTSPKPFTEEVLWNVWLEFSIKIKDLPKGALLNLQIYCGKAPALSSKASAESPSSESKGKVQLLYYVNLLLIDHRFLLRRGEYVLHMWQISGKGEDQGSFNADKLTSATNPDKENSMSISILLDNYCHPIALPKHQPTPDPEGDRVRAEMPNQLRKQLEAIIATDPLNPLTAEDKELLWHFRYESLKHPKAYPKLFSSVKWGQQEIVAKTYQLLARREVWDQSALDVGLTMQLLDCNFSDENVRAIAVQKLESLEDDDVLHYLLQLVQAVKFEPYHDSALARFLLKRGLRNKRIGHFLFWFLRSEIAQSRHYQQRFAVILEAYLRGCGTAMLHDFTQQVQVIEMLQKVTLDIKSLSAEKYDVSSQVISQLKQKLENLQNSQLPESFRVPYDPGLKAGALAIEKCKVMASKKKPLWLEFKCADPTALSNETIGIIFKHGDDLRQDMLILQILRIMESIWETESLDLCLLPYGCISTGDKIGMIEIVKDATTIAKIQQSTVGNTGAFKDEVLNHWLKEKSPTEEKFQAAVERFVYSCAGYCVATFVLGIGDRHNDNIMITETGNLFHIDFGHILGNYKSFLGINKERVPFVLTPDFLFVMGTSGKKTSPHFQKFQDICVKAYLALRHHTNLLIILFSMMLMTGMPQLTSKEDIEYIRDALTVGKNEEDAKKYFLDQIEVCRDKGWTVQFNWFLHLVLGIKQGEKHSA
# N-Ras.mant-GMPPNP [2] = biological target: T2, N-Ras.mant-GMPPNP; test: Fluorescence anisotropy titration of PI3Kγ 144-1102 into N-Ras.mant-GMPPNP; format: binding; conditions: fluorescence anisotropy, 20° C., 1 μM N-Ras.mant-GMPPNP
# Protocol: (§1) Mant-nucleotides were synthesised as described previously (Jameson and Eccleston, 1997). N-Ras and H-Ras mutants were loaded with mant-GMPPNP as in (Moore et al., 1993), gel filtered into running buffer (20 mM Tris pH 7.5, 2 mM MgCl2, 1 mM DTT), and frozen at −80° C. The concentration of Ras.mant-GMPPNP was determined by measuring the absorbance of the mant group at […] with ε=5700 M^−1 cm^−1 (Hiratsuka, 1983). For binding assays, the 144-1102 human PI3Kγ was titrated into a 1 μM solution of fill length, unmodified N-Ras.mant-GMPPNP. Data were collected with SLM 8000 S and ISS PC1 spectrofluorimeters, set up in the T-format and L-format, respectively, with prism polarizers. All measurements were taken at 20° C. with a λex of 366 nm. Both emission PMTs were fitted with 399 nm cutoff filters. Five measurements of each data point were obtained and averaged. Data were fitted to the binding equation.
# Target sequence in this assay (P01111 whole entry): as the sequence (P01111 whole entry) above
# wild type H-Ras = wild type H-Ras (Homo sapiens, UniProt P01112); test: Fluorescence anisotropy titration of PI3Kγ with H-Ras; format: binding
# Protocol: as §1
# N-Ras.GDP = N-Ras.GDP (Homo sapiens, UniProt P01111); test: Binding of PI3Kγ constructs to N-Ras.GDP
# N-Ras.GDP, sequence (P01111 whole entry): as above
# wild type H-Ras, sequence (P01112 whole entry): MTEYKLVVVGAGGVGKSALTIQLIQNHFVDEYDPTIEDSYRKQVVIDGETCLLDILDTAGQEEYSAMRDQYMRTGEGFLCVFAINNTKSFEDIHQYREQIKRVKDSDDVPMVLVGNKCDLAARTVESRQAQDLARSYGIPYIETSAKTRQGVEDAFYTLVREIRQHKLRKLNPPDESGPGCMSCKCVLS
# wild type H-Ras, sequence (P48736 144-1102 partner limits assumed): as the sequence (P48736 144-1102 partner limits assumed) above
# T1 sequence (P48736 144-1102): as the sequence (P48736 144-1102 partner limits assumed) above
nucleotide release from PI3Kγ (PI3K),Kd (N-Ras.mant-GMPPNP [2]) [nM],Kd (wild type H-Ras) [nM],Substance,observed rate constant of the Ras.PI3K complex (single-exponential fit) (N-Ras.mant-GMPPNP [1]) [s⁻¹],binding to N-Ras.GDP (N-Ras.GDP)
slower than mant-ATP release,,,mant-ADP,,
,2800 ± 400,3200 ± 500,wild type PI3Kγ: residues 144-1102 of human PI3Kγ with a C-terminal His6 tag,18,"Neither the wild-type protein, the pseudo wild-type (V327A, see methods), nor the V223K mutant exhibit detectable binding"
